B1: importin-α/β heterodimer (complex)
chain 1: not shown
chain 2: MELVTILEKTVSPDRNELEAAQKFLEQAAVENLPTFVVELSKVLANPANSQVARVAAGLQIKNPLTSRDPDVKAQYQQRWLAIDASARGEIKTYVLRTLGTESYRPSSASQCVAGIACAEITVNQWPQLIPQLVANVTDPNSTERMKESTLEAIGYICQDIDPEQLQHKSNEILTAIIQGMRKEEPSNNVRLAATNALLNSLEFTKANFDKESERHYIMQVVCEATQCPDTRVRVAALQNLVKIMSLYYQYMETYMGPALFAITVEAMKNEIDEVALQGIEFWSNVCDEEMDLAIEASEAAEQGRPPEHTSKFYAKGALQYLVPILTQTLTKQDENDDDDDWNPCKAAGVCLMLLATCCEDDIVPHVLPFIKEHIKNPDWRYRDAAVMAFGCILEGPESCQLKPLVIQAMPTLIELMKDPSVVVRDTTAWTVGRICELLPEAAINDVYLAPLLQCLIEGLGAEPRVASNVCWAFSSLAEAAYEAADVADDQEEPSSYCLSSSFEVIVQKLLETTDRPDGHQNNLRSAAYEALMEIVKNSAKDCYPAVQKTTLVIMERLQQVLQVESHIQSTSDRIQFNDLQSLLCATLQNVLRKVQHQDALQISDVVMASLLRMFQSTAGSGGVQEDALMAVSTLVEVLGAEFLKYMEAFKPFLTIGLKNYAEYQVCLAAVGLVGDLCRALQSNILPFCDEMMQFLLENLGNENVHRSVKPQILSVFGDVALAIGGEFKKYLDVVLNTLQQASQAQVDKSDYDMVDYLNELREGCIEAYTGIIQGLKGDQENVHPDVMLVQPRVEFILSFIDHIAGDEDHTDSVVACGAGLIGDLCTAFGKDVLKLVEARPMIHELLTEGRRSKTNKTKTLATWATKELRKLKNQA
B2: importin-β (natural protein, Xenopus laevis, UniProt P52297 1-876, looked up)
chain: MELVTILEKTVSPDRNELEAAQKFLEQAAVENLPTFVVELSKVLANPANSQVARVAAGLQIKNPLTSRDPDVKAQYQQRWLAIDASARGEIKTYVLRTLGTESYRPSSASQCVAGIACAEITVNQWPQLIPQLVANVTDPNSTERMKESTLEAIGYICQDIDPEQLQHKSNEILTAIIQGMRKEEPSNNVRLAATNALLNSLEFTKANFDKESERHYIMQVVCEATQCPDTRVRVAALQNLVKIMSLYYQYMETYMGPALFAITVEAMKNEIDEVALQGIEFWSNVCDEEMDLAIEASEAAEQGRPPEHTSKFYAKGALQYLVPILTQTLTKQDENDDDDDWNPCKAAGVCLMLLATCCEDDIVPHVLPFIKEHIKNPDWRYRDAAVMAFGCILEGPESCQLKPLVIQAMPTLIELMKDPSVVVRDTTAWTVGRICELLPEAAINDVYLAPLLQCLIEGLGAEPRVASNVCWAFSSLAEAAYEAADVADDQEEPSSYCLSSSFEVIVQKLLETTDRPDGHQNNLRSAAYEALMEIVKNSAKDCYPAVQKTTLVIMERLQQVLQVESHIQSTSDRIQFNDLQSLLCATLQNVLRKVQHQDALQISDVVMASLLRMFQSTAGSGGVQEDALMAVSTLVEVLGAEFLKYMEAFKPFLTIGLKNYAEYQVCLAAVGLVGDLCRALQSNILPFCDEMMQFLLENLGNENVHRSVKPQILSVFGDVALAIGGEFKKYLDVVLNTLQQASQAQVDKSDYDMVDYLNELREGCIEAYTGIIQGLKGDQENVHPDVMLVQPRVEFILSFIDHIAGDEDHTDSVVACGAGLIGDLCTAFGKDVLKLVEARPMIHELLTEGRRSKTNKTKTLATWATKELRKLKNQA
notes: importin-β, Xenopus laevis; Construct in the Supplemental information; The UniProt entry recalled may be a fragment; also called importin-β alone; source: recombinant, purified to >95% purity
B3: Targeting Protein for XKlp2 (TPX2), full length, wild type (natural protein, Xenopus laevis, UniProt Q6NUF4 1-716, looked up)
chain: MEDTQDTYSYDAPSIFNFSSFHEDHNADSWFDQVTNAENIPPDQRRLSETSVNTEQNSKVEPVQTTPSKDDVSNSATHVCDVKSQSKRSSRRMSKKHRQKLLVKMKDTHLEKETAPPEYPPCKKLKGSSSKGRHAPVIKSQSTSSHHSMTSPKPKAQLTMPSTPTVLKRRNVLVKAKNSEEQELEKMQELQKEMLENLKKNEHSMKVAITGAGQPVKTFIPVTKPVDFHFKTDDRLKRTANQPEGDGYKAVDFASELRKHPPSPVQVTKGGHTVPKPFNLSKGKRKHEEASDYVSTAEQVIAFYKRTPARYHLRSRQREMEGPSPVKMIKTKLTNPKTPLLQTKGRHRPVTCKSAAELEAEELEMINQYKFKAQELDTRILEGGPVLLKKPLVKEPTKAIGFDLEIEKRIQQREKKEEIEEETFTFHSRPCPSKMLTDVVGVPLKKLLPVTVPQSPAFALKNRVRIPAQEEKQEEMVPVIKATRMPHYGVPFKPKLVEQRQVDVCPFSFCDRDKERQLQKEKRLDELRKDEVPKFKAQPLPQFDNIRLPEKKVKMPTQQEPFDLEIEKRGASKLQRWQQQIQEELKQQKEMVVFKARPNTVVHQEPFVPKKENRSLTESLSGSIVQEGFELATAKRAKERQEFDKCLAETEAQKSLLEEEIRKRREEEEKEEISQLRQELVHKAKPIRKYRAVEVKASDVPLTVPRSPNFSDRFKC
notes: TPX2, Xenopus laevis, full length; 1 to 716; Named GFP-TPX2 for SEC-MALS; also called GFP-TPX2; wt-TPX2; source: recombinant, purified to >95% purity

Key:
[1] = molecular target: B3; assay: cell-based or functional assay
[2] = molecular target: B3; assay: SEC-MALS; Superdex-200-increase 3.2/300 in line with a Wyatt light scattering machine; GFP-TPX2 alone, importin-α/β alone and TPX2 with importin-α/β (TPX2 printed as 5 M, importin-α/β 15 μM); details: both partners purified
[3] = molecular target: GST-importin-α (Xenopus laevis); assay: as above; details: both partners purified
Chain of GST-importin-α (Xenopus laevis) (chain, as listed by the source): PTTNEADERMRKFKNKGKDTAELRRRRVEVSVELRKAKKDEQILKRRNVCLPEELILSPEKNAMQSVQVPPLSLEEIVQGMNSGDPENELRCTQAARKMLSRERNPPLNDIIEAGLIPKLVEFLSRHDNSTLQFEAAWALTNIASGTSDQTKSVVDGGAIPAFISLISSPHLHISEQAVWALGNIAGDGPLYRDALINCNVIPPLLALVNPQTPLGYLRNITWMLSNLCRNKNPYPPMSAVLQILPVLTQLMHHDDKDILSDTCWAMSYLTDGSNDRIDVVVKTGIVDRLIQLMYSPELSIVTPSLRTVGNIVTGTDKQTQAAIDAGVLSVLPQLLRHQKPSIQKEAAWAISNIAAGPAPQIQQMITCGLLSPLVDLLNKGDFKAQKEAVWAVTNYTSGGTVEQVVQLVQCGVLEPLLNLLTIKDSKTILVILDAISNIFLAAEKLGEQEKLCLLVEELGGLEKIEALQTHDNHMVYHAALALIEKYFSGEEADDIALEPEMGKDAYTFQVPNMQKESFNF

[4] = molecular target: B1; assay: BLI; Octet (ForteBio); TPX2 attached to sensors, importin concentration varied; normalized amplitudes; apparent Kd; details: both partners purified
[5] = molecular target: B2; assay: as above; details: both partners purified

B1
inhibition of TPX2 condensation (fluorescence microscopy; TPX2 1 μM, importin-α/β in molar excess) [1]: 2 fold excess
stoichiometry N [2]: 1 TPX2:importin-α:importin-β

B2
TPX2-mediated branching microtubule nucleation in Xenopus egg cytosol (TIRF microscopy; TPX2 150 nM, importin-β 2.5x to 20x) [1]: 10 fold molar excess
stoichiometry N [3]: 1 importin-α:importin-β

B3
Kd [4]: 75 ± 15 nM
Kd [5]: 530 ± 75 nM

B4: TPX2 N terminus (a.a. 1-480) (domain or fragment, Xenopus laevis, UniProt Q6NUF4 1-480, looked up)
chain: MEDTQDTYSYDAPSIFNFSSFHEDHNADSWFDQVTNAENIPPDQRRLSETSVNTEQNSKVEPVQTTPSKDDVSNSATHVCDVKSQSKRSSRRMSKKHRQKLLVKMKDTHLEKETAPPEYPPCKKLKGSSSKGRHAPVIKSQSTSSHHSMTSPKPKAQLTMPSTPTVLKRRNVLVKAKNSEEQELEKMQELQKEMLENLKKNEHSMKVAITGAGQPVKTFIPVTKPVDFHFKTDDRLKRTANQPEGDGYKAVDFASELRKHPPSPVQVTKGGHTVPKPFNLSKGKRKHEEASDYVSTAEQVIAFYKRTPARYHLRSRQREMEGPSPVKMIKTKLTNPKTPLLQTKGRHRPVTCKSAAELEAEELEMINQYKFKAQELDTRILEGGPVLLKKPLVKEPTKAIGFDLEIEKRIQQREKKEEIEEETFTFHSRPCPSKMLTDVVGVPLKKLLPVTVPQSPAFALKNRVRIPAQEEKQEEMVPVI
notes: TPX2, Xenopus laevis, amino acids 1-480 (disordered N-terminal region); also called N-terminal region (a.a. 1-480) of TPX2; source: recombinant, purified to >95% purity
Kd [5]: 512 ± 70 nM

B5: TPX2 C terminus (a.a. 480-716) (domain or fragment, Xenopus laevis, UniProt Q6NUF4 480-716, looked up)
chain: IKATRMPHYGVPFKPKLVEQRQVDVCPFSFCDRDKERQLQKEKRLDELRKDEVPKFKAQPLPQFDNIRLPEKKVKMPTQQEPFDLEIEKRGASKLQRWQQQIQEELKQQKEMVVFKARPNTVVHQEPFVPKKENRSLTESLSGSIVQEGFELATAKRAKERQEFDKCLAETEAQKSLLEEEIRKRREEEEKEEISQLRQELVHKAKPIRKYRAVEVKASDVPLTVPRSPNFSDRFKC
notes: TPX2, Xenopus laevis, amino acids 480-716 (ordered C-terminal region); also called TPX2's C terminus; source: recombinant, purified to >95% purity
Kd [5]: > 4000 nM

Reference: article PMC8390506, “Interaction of spindle assembly factor TPX2 with importins-α/β inhibits protein phase separation” (The Journal of Biological Chemistry, 2021)
